± gives the standard deviation of the averaged measurements.
These sequences were tested on ATP (assay: switch fluorescence ratio, 500 uM ATP over buffer (Cy3 cluster intensity, sum of 5 cycles each) (fold (ratio)); higher = stronger signal-on switching upon ATP binding; sequences stand for … in TCGTCGGCAGCGTCAGATGTGTATAAGAGACAGTTTTTTTTTTTTTTTTTTTTTTTTT…TC). Conditions: aptamer strand: ATP DNA aptamer (quencher-CACCTGGGGGAGTATTGCGGAGGAAGG + anchor), 100 nM annealed; ATP concentration: 500 uM.
How it was run: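 Between each of five buffer/ATP cycles, the flow-cell was stripped with NaOH and re-annealed. Each cycle imaged Cy3-labelled switching-strand clusters, annealed to 100 nM quencher-labelled ATP aptamer on a modified Illumina MiSeq flow-cell, first in selection buffer and then after 15 min with 500 uM ATP at 22 °C. The fluorescence ratio is summed target-cycle over summed buffer-cycle Cy3 intensity per cluster, averaged per switch-domain sequence, with clusters outside 100-1000 RFU excluded.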
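Further: ATP exposure 15 min at 22 °C before imaging.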

Point of comparison: TCGCGCCGGT, switch fluorescence ratio 1.005 ± 0.0062. Against it:
- GGGTGGGTTT — within error, 1 ± 0.018
- ATGTCTGGGC — lower, 0.977 ± 0.014
- TTTTGTGAGG — within error, 1.04 ± 0.044
- TACGTATTTA — higher, 1.13 ± 0.0012
- GGGCCCCTTG — the same, 1.01 ± 0.073
- GAATAAGATT — the same, 1.01 ± 0.061
- TTTTCAGTTG — lower, 1.002 ± 0.0029
- AAGTTGTGGC — the same, 1.01 ± 0.017
- AGGGCGTTAG — the same, 1.01 ± 0.044
- AGTCAAAAAG — within error, 0.985 ± 0.051
- ATTGGGATCC — within error, 1.02 ± 0.029
- CGCGTGAAGA — within error, 1.12 ± 0.11
- ACAGTCGGGC — within error, 1.001 ± 0.0073
- ATACATAACG — higher, 1.38 ± 0.052
- GAGGATCGGG — within error, 0.992 ± 0.023
- GTTTTTGGTG — within error, 1 ± 0.018
- AAGGATGTGG — lower, 0.977 ± 0.021
- GGGGAAATCC — within error, 1.02 ± 0.046
- GTTGGTTAAT — within error, 0.966 ± 0.054
- TAAACCGCGG — the same, 1.01 ± 0.059
- CTAATGGGGA — within error, 0.981 ± 0.044
- AGTGAGGTGC — within error, 1.02 ± 0.01
- CCTATTGTAT — within error, 1.02 ± 0.033
- GTTGAATCAT — within error, 0.992 ± 0.017
- ATGTATTTGG — the same, 1.01 ± 0.014
- GAAAGTATAA — within error, 0.998 ± 0.013
- ATGGTAAGAC — higher, 1.14 ± 0.062
- TTTTAGGCAT — the same, 1.01 ± 0.031
- GAGTAACTGT — lower, 0.966 ± 0.016
- CCGTGCTCTA — higher, 1.281 ± 0.0015
- TGGAGTACGG — the same, 1.008 ± 0.0036
- GCTGGTTTGT — lower, 0.989 ± 0.013
- ACATCTGACA — higher, 1.06 ± 0.019
- GTCTGAAGGA — lower, 0.9791 ± 0.0055
- GAATGGGATT — lower, 0.976 ± 0.018
- TATGACTTTG — within error, 1.03 ± 0.071
- AATCGGTCGT — within error, 0.994 ± 0.031
- ACCGGGGCAA — within error, 1.13 ± 0.16
- CCGCTAGGGC — within error, 2.1 ± 1.2
- CGCGGAGTAG — lower, 0.9869 ± 0.0043
- TGTATTTTTG — within error, 1.02 ± 0.029
- CAGGGGATGT — lower, 0.985 ± 0.013
- GTGTAAACGT — within error, 1.04 ± 0.05
- TTGTTGAAGG — within error, 0.998 ± 0.038
- CCAGGCTCTG — lower, 0.993 ± 0.006
- TTACTCTATA — higher, 1.06 ± 0.016
- TTATCTCTGG — lower, 0.9776 ± 0.0076
- GGTTTTCTGG — within error, 1.02 ± 0.027
- TGCAGAGGGC — within error, 1.03 ± 0.02
- CGTATCTAGG — lower, 0.98 ± 0.021
- AGTGCGGGGG — higher, 1.036 ± 0.0073
- TGTTTTGAGC — within error, 1 ± 0.037
- GGGAGGAATG — within error, 0.989 ± 0.021
- TTCCTGGAC — higher, 1.7 ± 0.39
- TTGATCTCAT — lower, 0.9479 ± 0.0076
- ATGAGGAGTT — within error, 0.996 ± 0.025
- GCTATTGGCA — the same, 1.014 ± 0.01
- TGGGGTTG — within error, 0.993 ± 0.018
- GGACCATGAC — higher, 1.14 ± 0.0075
- TATTTGTTCT — within error, 1 ± 0.024
- TCTCCAGATA — higher, 1.12 ± 0.034
- ATAAAGCGAT — higher, 1.06 ± 0.023
- ATGATTAAGA — within error, 1.02 ± 0.019
- GCTGGGGAAG — within error, 1.02 ± 0.019
- TGACGTGTTG — within error, 1.02 ± 0.083
- TACAGTCTGG — the same, 1.007 ± 0.0066
- GGTTAAGCCG — within error, 0.996 ± 0.017
- ATATCTCCGG — higher, 1.07 ± 0.014
- ATTTTACACC — higher, 1.07 ± 0.013
- AACAGGTACT — higher, 1.074 ± 0.0094
- TTTTGGAAAG — lower, 0.987 ± 0.013
- TGGGGCGGGT — within error, 1.02 ± 0.017
- GCATATCCGG — within error, 1.02 ± 0.011
- TATGATCTGT — lower, 0.979 ± 0.021
- AGAAGCCCAC — higher, 1.09 ± 0.019
- TCTTGTTTTG — within error, 0.994 ± 0.048
- TTTGTTGAGC — within error, 1.44 ± 0.66
- GGGGACGGAC — within error, 1.04 ± 0.035
- CGTTAATCTA — within error, 0.987 ± 0.026
- TGAGCATGCT — within error, 1 ± 0.021
- CGGCTGTGCT — within error, 1 ± 0.022
- AGCAGGTGGC — higher, 1.13 ± 0.045
- AGATTTAAGT — within error, 0.985 ± 0.022
- ATCGATCTGG — within error, 1 ± 0.015
